In a protein production outcome set (Wang et al. 2014):

Assay: label from the status in PepcDB records
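Also: failed if final PepcDB status was selected cloned or expressed and not failed if soluble or beyond.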

Row | Sequence | protein production
1 | MSLKKTILCFGEALIDMLAQPLVKKGMPRAFLQCAGGAPANVAVAVARLGGAVQFVGMLGSDMFGDFLFDSFAEAGVVTDGIVRTSTAKTALAFVALDAHGERSFSFYRPPAADLLFRVEHFQDASFSDALIFHACSNSMTDADIAEVTFEGMRRAQAAGAIVSFDLNFRPMLWPNGENPASRLWKGLSLADVVKLSSEELDYLANTLAADANAVIQQLWQGRAQLLLVTDAAGPVHWYTRTAGGEVPTFRVQVQDSNAAGDAFVGGMLYTFAQQFDDAAALIDFCHDPESIVSTLRFAAAVGALAVTRQGAFTAMPMLSEVLSLIQEQSEGHHHHHH | not failed
2 | MSLKLYGFSVSNYYNMVKLALLEKGLTFEEVTFYGGQAPQALEVSPRGKVPVLETEHGFLSETSVILDYIEQTQGGKALLPADPFGQAKVRELLKEIELYIELPARTCYAESFFGMSVEPLIKEKARADLLAGFATLKRNGRFAPYVAGEQLTLADLMFCFSVDLANAVGKKVLNIDFLADFPQAKALLQLMGENPHMPRILADKEASMPAFMEMIRSGKREGHHHHHH | not failed
3 | MSLKTLNIYLMRHGKVDAAPGLHGQTDLKVKEAEQQRIAMAWKTKGYDVAGIISSPLSRCHDLAQILAEQQLLPMTTEDDLQEMDFGDFDGMPFDLLTEHWKKLDAFWQSPAHHSLPNAESLSTFSQRVSRAWSQIINDINDNLLIVTHGGVIRIILAHVLGVDWRNPQWYSTLAIGNASVTHITITIDDQIYASVRSIGVPLVEEGHHHHHH | not failed
4 | MSLKVHHIGYAVKNIDSALKKFKRLGYVEESEVVRDEVRKVYIQFVINGGYRVELVAPDGEDSPINKTIKKGSTPYHICYEVEDIQKSIEEMSQIGYTLFKKAEIAPAIDNRKVAFLFSTDIGLIELLEKEGHHHHHH | not failed
5 | MSLKYGHVAWIQQILDGSYADAMNTLKNITVDDSKKGESLSECELHLNVAKLSSLLVEKDNLDINTLRKIQYNLDTIDAEKNISNKLKKGEVQICKRFKNGSIREVFNILVEELKSTTVVNLSDLVELYSMLDDEESLFIPLRLLSVDGNLLNFEVKKFLNALVWRRIVLLNASNEGDKLLQHIVKRVFDEELPKNNDFPLPSVDLLCDKSLLTPEYISETYGRFPIDQNAIREEIYEEISQVETLNSDNSLEIKLHSTIGSVAKEKNYTINYETNTVEYEGHHHHHH | not failed
6 | MSLLDAHIPQLIASHTAFAAKAGLMRHTIGQAEQQAMSAQAFHQGESAAAFQGAHARFVAAAAKVNTLLDIAQANLGEAAGTYVAADAAAASSYTGF | failed
7 | MSLLDFYIIWRGDMLFATVVPIAYFLLYLKNKQVTFVFLKFVMAFVICLYWATYACTFFYSYYDVIGWFKILIIPVFSIYSGFVLHLLKSKKKKVFFLISIVYIIFWCILIFWHCMSSM | failed
8 | MSLLLCDIGNSNANFLDDNKYFTLNIDQFLEFKNEQKIFYINVNEHLKEHLKNQKNFINLEPYFLFDTIYQGLGIDRIAACYTIEDGVVVDAGSAITIDIISNSIHLGGFILPGIANYKKIYSHISPRLKSEFNTQVSLDAFPQKTMDALSYGVFKGIYLLIKDAAQNKKLYFTGGDGQFLANYFDHAIYDKLLIFRGMKKIIKENPNLLYEGHHHHHH | not failed
9 | MSLLPLPFTVHFDPTNQELLLSGKMRPESAAEITDALKLVQQSLEKYSGVVYVNVKRLTHINMTAFAALADILAASSRIRPERKIVIITSSVVAWSTSLFQTLAASQPSLSVEVYDSAFYPGQSFVEDETFIPILRTQTKMTWRHERELLPRHGLRSGLVIADICCGIGDFAALVQREFKPARLVALDHSVRSLEYARRVAADFDLQGIEYTYGDASQMLLRDNQFDFVTCRHSLQIFNRPEMLLRELYRICKPGGRVYITNEKNSHCLGEPHAESIKWTYEEVAKLFKHFDMDVEMGPKSRHLLADAGFDNIKVDSFMVTNLDGDPQDFADIIEAWENVYAGEMAVRRGDSSDFIRRFRQGFKDHVFAALHPKGYAGWPIWAASGRKPL | failed
10 | MSLMQLQLTQEWDKTFPLSAKVEHRKVTFANRYGITLAADLYLPKNRGGDRLPAIVIGGPFGAVKEQSSGLYAQTMAERGFVTLAFDPSYTGESGGQPRNVASPDINTEDFSAAVDFISLLPEVNRERIGVIGICGWGGMALNAVAVDKRIKAVVTSTMYDMTRVMSKGYNDSVTLEQRTRTLEQLGQQRWKDAESGTPAYQPPYNELKGGEAQFLVDYHDYYMTPRGYHPRAVNSGNAWTMTTPLSFMNMPILTYIKEISPRPILLIHGERAHSRYFSEIAYAAAAEPKELLIVPGASHVDLYDRLDRIPFDRIAGFFDEHLEGHHHHHH | not failed
11 | MSLNIKEASEKSGVSADTIRYYERIGLIPPIHRNESGVRKFGAEDLRWILFTRQMRRAGLSIEALIDYLALFREGEHTLEARAELLKKQRIELKNRIDVMQEALDRLDFKIDNYDTHLIPAQEELKDFNVERSNEGHHHHHH | not failed
12 | MSLNKKVFIIDKQTVYQEIDNFSASDAWRCAFIGKNWPQEKKEKIADLLFKREFDEKGNPIGMALTNWRVNIGAGSYENREAKEVDNSWNRTECFLSPDGKYDFTKQAGQQWFMKAARERGMNNFLFFTNSAPYFMTRSASTVSTDQDCINLQNDKFDDFARFLVKSAQHFREQGFHVNYISPNNEPNGQWHANSFQEGSFATKADLYRMVEELDKAISEAQIDTKILIPEVGDMKYLFEIDSIAKTPDDIIHSMFYKDGQYSVLKFKNLFNCVAAHDYWSAYPATLLVDIRNRIHKELSANGHNTKFWASEYCILEKNEEITMPASPERSINLGLYVARIIHNDLTLANASAWQWWTAVSLGEDVPIQLLPLEGSNGLSLQYDGEISTTKMLWTTANYSFFVRPGMKRIAIKPTYKISDLEAATSLMISSYTDGKEVVTVAINYSKENQVISLNCDHAQKGKVYLTTIDKNLRYMGEQPLKKLQLPARSVATIVVEDNEGHHHHHH | not failed
13 | MSLNSAAQAQSSDPVVIGCPAPLTGIVAADGIEFQRGIQMAADEINAVGGILGRPIELVFADTQSKGVDVVIQSAQRLIDRDNASALIAGYNLENGTALHDVAADAGVIAMHANTVAVHDEMVKSDPDRYWGTFQYDPPETLYGGGFLKFLKDIEDNGEFSRPNNKIAIITGPGIYSVNIANAIRDGAGEYGYDVSLFETVAIPVSDWGPTLAKLRADPPAVIVVTHFYPQDQALFMNQFMTDPTNSLVYLQYGASLAAFRDIAGDNSVGVTYATVLGTLQDEMGDAFAKAYKERYGDLSSTASGCQTYSALYAYSIAAALAGGPGAPYDDVQNKAVADRLRSLIFRGPVGTMRFHADTQSAWSYPTETNDPSLGMPHIFSQIFDKAEDGVLIAPAPYKKAGFKMPPWMKGEGHHHHHH | not failed
14 | MSLNVKNDFSILIIEDDKEFADMLTQFLENLFPYAKIKIAYNPFDAGDLLHTVKPDVVMLDLMMVGMDGFSICHRIKSTPATANIIVIAMTGALTDDNVSRIVALGAETCFGKPLNFTLLEKTIKQLVEQKKATSEGHHHHHH | not failed
15 | MSLNYIEDIKNYIPFNEQEERDKELFLRCLNDFHDILTRDNTIAHLTSSAFAVNKERNKFLMIHHNIYNSWAWTGGHSDNEKDQLKVAIKELKEETGVKNPTPLLDKAFALDVLTVNGHIKRGKYVSSHLHLNLTYLIECSEDETLMLKEDENSGVMWIPFNEISKYCSEPHMIPIYEKLINKLKTQSKEGHHHHHH | not failed
16 | MSLPANKLVFVGGMGAGKTTAVRSISDVEPVSTEMPLSQDAYGDKTYTTVALDYSSIELEDGELLHVYGVPGQKYLDFMWPLVCDGALGVIVLTNARDPQMLTATLELLREFSQIAPEASLAVGITMTDEVEDFLVPPFREALVAEGFRVPVMRVDARSATQITFLVKSLLSYRYTSATSLEHHHHHH | not failed
17 | MSLPTFRIIGFIIGIFLITLAVAMIVPMATLVIYDRFEDLRSFLWASAITFIAGLALVVPGRPDNVQLRPRDMYMLTVSSWIVVCIFAALPFLLTQHISYTDSFFESMSGITATGSTVLSHLDSMSPGILIWRSMLHWLGGIGFIGMAVAILPLLRIGGMRLFQTESSDRSEKVMPRSHMVAKFIVLAYVGFTALGSLAFWAAGMSLFDAINHAMSAISTGGFSTSDLSLARWPQPAVHWVAIVVMILGSLPFTLYVATLRGNRKALIKDEQVQGLIGLLLITWLVMTVWYANTTDLPWTEALRHVALNVTSVVTTTGFALGDYSLWGNFSLMLFFYLGFIGGCSGSTAGGVKIFRFQVAYILLKTNLNQLIHPRAVMKQKYNGHRLDDEIVRSILTFSFFFTITICLIALMLSLLGLDWMTALTGAASTVSGVGPGLGEVIGPAGNFSTLPDAAKWILSGGMLLGRLEIITVLVLCVPAFWRH | failed
18 | MSLQPKLLLVLKGDSNAYWRQVYLGAQKAADEAGVTLLHRSTKDDGDIAGQIQILSYHLSQAPPDALILAPNSAEDLTPSVAQYRARNIPVLVVDSDLAGDAHQGLVATDNYAAGQLAARALLATLDLSKERNIALLRLRAGNASTDQREQGFLDVLRKHDKIRIIAAPYAGDDRGAARSEMLRLLKETPTIDGLFTPNESTTIGALVAIRQSGMSKQFGFIGFDQTEELEAAMYAGEISNLVVQNPEYMGYLAVQRALDLVRGKPIPAFTDTGVRLLQEGHHHHHH | not failed
19 | MSLRDYTRKRRFDQTPEPAEDAAATAHRQPIFVVQLHHASSRHYDFRLEADGVLKSWAVPKGPSLRAGEKRLAVQVEDHPLAYAGFEGDIPQGQYGAGHVQVFDHGTWHCDGDALAALDAGKLDFDLQGDKLRGGFALVRTRLRGRQPQWLLIKRDDAHAADLDADALVADSDATAQAIETPSAAAAPARRAKASRRRRTPAEALVTEKSASASRPRASAATQAHWRTRALALPGARDAACPTGLRAQLTLLRAEAPDGAQWPHEIKWDGYRLLTDLVDGRAQLRSRNDQAWTDSFPEVATAVQALPVRDARLDGELVVLDAQGRSDFSALQRAIDGTARQPLRYLVFDLLGVAGVDLRATPLLERKQLLRALLGETPGTLAYSAHVIGRGPEVFAASADKGWEGIVSKRADAPYRGGRSADWVKTKHEDSDEFVVVGYTDPKGARSGFGALLLAQLDGTQLRYVGRVGTGFDSALLGEITAQLQALHSPQPTLELPAHIPSRPRDVHWVRPVLIAEVAFRGWAKQGLLRQAAFKRLREDKPMSDLGGDRATPGKSRGARTRTAAAAAGKASRAAATRTAAVSAGGSAAKPGKAGKSSTAADVSTPSRVAKQRVTPAASSAAKPGKPGKSSAAATGTASPRAAKRGAVSTASASSTPKSGKRSVSSGSAASGKPAAPSKAASSKTARTPATSSARKTSTATAASSIRKARASASNAPDGVAITHPERVVFPAAGISKGDVAAYYRAVAPLVLPEIARRPLSLLRCPDGAAGACFFQKHEGRHLGAHIKAIPLKQKSGTEDYLYIEDVAGLLELVQMNTLELHPWGARVDDPEHPDRLVFDLDPGEGVAWTQVVAAAREIRSKLRAAGLESAVRLSGGKGLHVVVPIVPQASWDQARDFCEAFAQALATQAPERYVATMSKAKRHGVIFVDWLRNGRGNTSVCSWSLRAREHATVAVPLRWEELGKLSGPDAFPLDKAVQRAKRQRNDPWADVLALKQVLPG | failed
20 | MSLRIGVIGLGRIGTIHAENLKMIDDAILYAISDVREDRLREMKEKLGVEKAYKDPHELIEDPNVDAVLVCSSTNTHSELVIACAKAKKHVFCEKPLSLNLADVDRMIEETKKADVILFTGFNRRFDRNFKKLKEAVENGTIGKPHVLRITSRDPAPPPLDYIRVSGGIFLDMTIHDFDMARYIMGEEVEEVFADGSVLVDEEIGKAGDVDTAVVVLRFKSGALGVIDNSRRAVYGYDQRIEVFGSKGRIFADNVRETTVVLTDEQGDRGSRYLYFFLERYRDSYLEELKTFIKNVKSGEPPAVSGEDGKMALLLGYAAKKSLEEKRSVKLEEVIGEGHHHHHH | not failed
